Source: US20100280227A1 (Genentech, published 2010)
Like-named read-outs stand apart in the source and are kept apart here. Blank lines part the entries; values can stand above or below the binder they belong to.

B3: mouse BR3 extracellular domain (receptor)
chain: MGARRLRVRSQRSRDSSVPTQCNQTECFDPLVRNCVSCELFHTPDTGHTSSLEPGTALQPQEGS
notes: also called mBR3-ECD; mBR-ECD

Legend:
[1] = biological target: T1, mouse BR3-Fc (mouse); assay: ELISA: mBAFF-Flag titrated on coated mBR3-Fc, then F(ab)'2 phage #3 (V3) added and detected
T1 construct: (BR3 ECD fused to a murine Fc); also called mBR3-Fc; murine BR3-Fc
T1 chain: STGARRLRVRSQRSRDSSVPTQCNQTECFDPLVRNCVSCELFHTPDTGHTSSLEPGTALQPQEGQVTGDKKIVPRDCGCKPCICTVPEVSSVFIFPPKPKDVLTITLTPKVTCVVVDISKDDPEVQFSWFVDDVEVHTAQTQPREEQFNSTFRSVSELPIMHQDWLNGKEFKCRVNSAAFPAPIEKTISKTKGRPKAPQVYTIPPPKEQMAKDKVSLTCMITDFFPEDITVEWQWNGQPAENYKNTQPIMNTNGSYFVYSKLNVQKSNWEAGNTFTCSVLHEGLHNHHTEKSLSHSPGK

[2] = biological target: T2, human BR3 expressed on cells (human, UniProt Q96RJ3 1-184); assay: BJAB cells, direct binding
T2 construct: whole, on cells; also called BR3 on BJAB cells; cell surface BR3

[3] = biological target: T2, human BR3 expressed on cells; assay: BJAB cells, direct binding; remark: listed apart in the source
[4] = biological target: T3, human BR3 extracellular domain (human, UniProt Q96RJ3 1-61); assay: SPR, IgG on chip, BR3 ECD in solution
T3 construct: biotinylated where used as tracer; also called hBR3-ECD; BR3-ECD

[5] = biological target: B3; assay: SPR, IgG on chip, BR3 ECD in solution
[6] = biological target: T2, human BR3 expressed on cells; assay: BJAB cells, competition with biotin-BAFF
[7] = biological target: T2, human BR3 expressed on cells; assay: BJAB cells, competition with biotin-BAFF; remark: listed apart in the source
[8] = biological target: T4, human BR3 displayed on phage, T17 alanine-scan mutant (human, UniProt Q96RJ3 1-61, limits assumed); assay: shotgun alanine scan of phage-displayed BR3; F against wild type;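 further: Phage-displayed BR3 shotgun alanine libraries, two selection rounds for anti-BR3 antibody binding, normalized to a display selection, F above 1 marks a harmful substitution, below 1 a beneficial one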
T4 construct: One position of the shotgun alanine scan of BR3 on phage; the F value gives the effect of this change against wild type; See m1 for the parent

[9] = biological target: T5, human BR3 displayed on phage, L28 alanine-scan mutant (human, UniProt Q96RJ3 1-61, limits assumed); assay: as above
T5 construct: One position of the shotgun alanine scan of BR3 on phage

[10] = biological target: T6, human BR3 displayed on phage, V29 alanine-scan mutant (human, UniProt Q96RJ3 1-61, limits assumed); assay: as above
T6 construct: One position of the shotgun alanine scan of BR3 on phage

[11] = biological target: T7, human BR3 displayed on phage, H31 alanine-scan mutant (human, UniProt Q96RJ3 1-61, limits assumed); assay: as above
T7 construct: One position of the shotgun alanine scan of BR3 on phage

[12] = biological target: T8, human BR3 displayed on phage, V33 alanine-scan mutant (human, UniProt Q96RJ3 1-61, limits assumed); assay: as above
T8 construct: One position of the shotgun alanine scan of BR3 on phage

[13] = biological target: human BR3 displayed on phage, mutated at A34 in the alanine scan (human, UniProt Q96RJ3 1-61, limits assumed); assay: as above
[14] = biological target: T9, human BR3 displayed on phage, G36 alanine-scan mutant (human, UniProt Q96RJ3 1-61, limits assumed); assay: as above
T9 construct: One position of the shotgun alanine scan of BR3 on phage

[15] = biological target: T10, human BR3 displayed on phage, L37 alanine-scan mutant (human, UniProt Q96RJ3 1-61, limits assumed); assay: as above
T10 construct: One position of the shotgun alanine scan of BR3 on phage

[16] = biological target: T11, human BR3 displayed on phage, L38 alanine-scan mutant (human, UniProt Q96RJ3 1-61, limits assumed); assay: as above
T11 construct: One position of the shotgun alanine scan of BR3 on phage

[17] = biological target: T12, human BR3 displayed on phage, R39 alanine-scan mutant (human, UniProt Q96RJ3 1-61, limits assumed); assay: as above
T12 construct: One position of the shotgun alanine scan of BR3 on phage

[18] = biological target: T13, human BR3 displayed on phage, P18 alanine-scan mutant (human, UniProt Q96RJ3 1-61, limits assumed); assay: as above
T13 construct: One position of the shotgun alanine scan of BR3 on phage

[19] = biological target: T14, human BR3 displayed on phage, T40 alanine-scan mutant (human, UniProt Q96RJ3 1-61, limits assumed); assay: as above
T14 construct: One position of the shotgun alanine scan of BR3 on phage

[20] = biological target: T15, human BR3 displayed on phage, P41 alanine-scan mutant (human, UniProt Q96RJ3 1-61, limits assumed); assay: as above
T15 construct: One position of the shotgun alanine scan of BR3 on phage

[21] = biological target: T16, human BR3 displayed on phage, R42 alanine-scan mutant (human, UniProt Q96RJ3 1-61, limits assumed); assay: as above
T16 construct: One position of the shotgun alanine scan of BR3 on phage

[22] = biological target: T17, human BR3 displayed on phage, V20 alanine-scan mutant (human, UniProt Q96RJ3 1-61, limits assumed); assay: as above
T17 construct: One position of the shotgun alanine scan of BR3 on phage

[23] = biological target: T18, human BR3 displayed on phage, P21 alanine-scan mutant (human, UniProt Q96RJ3 1-61, limits assumed); assay: as above
T18 construct: One position of the shotgun alanine scan of BR3 on phage

[24] = biological target: human BR3 displayed on phage, mutated at A22 in the alanine scan (human, UniProt Q96RJ3 1-61, limits assumed); assay: as above
[25] = biological target: T19, human BR3 displayed on phage, E23 alanine-scan mutant (human, UniProt Q96RJ3 1-61, limits assumed); assay: as above
T19 construct: One position of the shotgun alanine scan of BR3 on phage

[26] = biological target: T20, human BR3 displayed on phage, F25 alanine-scan mutant (human, UniProt Q96RJ3 1-61, limits assumed); assay: as above
T20 construct: One position of the shotgun alanine scan of BR3 on phage

[27] = biological target: T21, human BR3 displayed on phage, D26 alanine-scan mutant (human, UniProt Q96RJ3 1-61, limits assumed); assay: as above
T21 construct: One position of the shotgun alanine scan of BR3 on phage

[28] = biological target: T22, human BR3 displayed on phage, L27 alanine-scan mutant (human, UniProt Q96RJ3 1-61, limits assumed); assay: as above
T22 construct: One position of the shotgun alanine scan of BR3 on phage

[29] = biological target: T23, mouse BR3 (form in the mapping assay not stated) (mouse, UniProt Q9D8D0 1-71, limits assumed); assay: competition ELISA on murine BR3 against biotinylated V3-1m
T23 construct: May be the same as m2, m6 or m10
T23 sequence (looked up): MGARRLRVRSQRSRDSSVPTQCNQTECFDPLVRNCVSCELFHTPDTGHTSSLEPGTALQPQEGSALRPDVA

[30] = biological target: T23, mouse BR3 (form in the mapping assay …); assay: competition ELISA on murine BR3 against biotinylated B9C11
[31] = biological target: T24, murine BR3 expressed on cells (mouse, UniProt Q9D8D0 1-175); assay: BHK cells expressing murine BR3, competitive binding assay against BAFF
T24 construct: whole, on cells; also called murine BR3 on BHK cells; mouse BR3
T24 sequence (looked up): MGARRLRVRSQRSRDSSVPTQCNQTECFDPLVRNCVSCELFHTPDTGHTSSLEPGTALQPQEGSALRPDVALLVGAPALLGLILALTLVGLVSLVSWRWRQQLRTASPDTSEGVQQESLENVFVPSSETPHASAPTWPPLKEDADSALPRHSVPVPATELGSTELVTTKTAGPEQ

[32] = biological target: T25, V3-1 Fab; assay: phage competition ELISA, ECD in solution
T25 construct: soluble Fab in SPR

[33] = biological target: T26, V3-11 Fab; assay: phage competition ELISA, ECD in solution
T26 construct: soluble Fab in SPR
T26 sequence (VH, as listed by the source, chain 1 of 2): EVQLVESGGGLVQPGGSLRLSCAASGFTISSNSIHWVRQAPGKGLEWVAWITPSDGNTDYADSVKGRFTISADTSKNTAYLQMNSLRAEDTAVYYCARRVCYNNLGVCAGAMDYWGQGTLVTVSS
T26 sequence (VL, as listed by the source, chain 2 of 2): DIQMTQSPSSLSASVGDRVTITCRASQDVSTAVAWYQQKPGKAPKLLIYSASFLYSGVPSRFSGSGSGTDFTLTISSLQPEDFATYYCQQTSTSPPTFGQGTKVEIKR

[34] = biological target: T27, V3-12 Fab; assay: phage competition ELISA, ECD in solution
T27 construct: soluble Fab in SPR
T27 sequence (VH, as listed by the source, chain 1 of 2): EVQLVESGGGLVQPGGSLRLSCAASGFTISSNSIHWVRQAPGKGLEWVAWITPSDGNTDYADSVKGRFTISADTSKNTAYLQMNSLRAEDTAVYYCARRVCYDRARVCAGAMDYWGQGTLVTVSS
T27 sequence (VL, as listed by the source, chain 2 of 2): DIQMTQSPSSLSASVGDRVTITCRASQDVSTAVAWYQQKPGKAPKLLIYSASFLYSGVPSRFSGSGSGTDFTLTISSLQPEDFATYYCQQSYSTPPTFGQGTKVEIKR

[35] = biological target: T28, V3-13 Fab; assay: phage competition ELISA, ECD in solution
T28 construct: soluble Fab in SPR

[36] = biological target: T25, V3-1 Fab; assay: phage competition ELISA, ECD in solution; remark: listed apart in the source
[37] = biological target: T29, V3-46s Fab; assay: phage competition ELISA, ECD in solution
T29 construct: N31S mutant of V3-46; also called V46s; N31S

[38] = biological target: T29, V3-46s Fab; assay: phage competition ELISA, ECD in solution (printed Phage50)
[39] = biological target: T30, V3-46s-9 Fab; assay: as above
T30 construct: soluble Fab in SPR; also called V46s-9
T30 sequence (VH, as listed by the source, chain 1 of 2): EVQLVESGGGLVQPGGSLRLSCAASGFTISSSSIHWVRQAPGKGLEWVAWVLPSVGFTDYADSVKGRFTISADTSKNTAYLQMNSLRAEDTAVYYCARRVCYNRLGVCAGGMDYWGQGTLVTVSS
T30 sequence (VL, as listed by the source, chain 2 of 2): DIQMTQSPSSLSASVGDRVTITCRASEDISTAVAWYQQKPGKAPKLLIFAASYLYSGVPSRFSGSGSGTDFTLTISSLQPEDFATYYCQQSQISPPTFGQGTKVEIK

[40] = biological target: T31, V3-46s-42 Fab; assay: as above
T31 construct: soluble Fab in SPR; also called V46s-42
T31 sequence (VL, as listed by the source, chain 2 of 2): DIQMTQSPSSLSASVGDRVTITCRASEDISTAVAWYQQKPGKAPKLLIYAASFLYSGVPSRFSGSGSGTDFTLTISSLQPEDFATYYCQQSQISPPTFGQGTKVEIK

[41] = biological target: T32, V3-46 phage clone; assay: phage competition ELISA, ECD in solution (printed Phage ID50)
T32 construct: also called V3-46 WT; clone 46

[42] = biological target: T33, V3-46 N31A phage clone; assay: as above
T33 construct: also called V3-46a

[43] = biological target: T34, V3-46 N31Q phage clone; assay: as above
T34 construct: also called V3-46q
T34 sequence (VH, as listed by the source, chain 1 of 2): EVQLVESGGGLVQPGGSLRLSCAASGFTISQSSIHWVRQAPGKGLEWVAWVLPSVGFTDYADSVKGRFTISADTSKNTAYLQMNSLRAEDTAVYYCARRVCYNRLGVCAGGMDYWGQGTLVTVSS
T34 sequence (VL, as listed by the source, chain 2 of 2): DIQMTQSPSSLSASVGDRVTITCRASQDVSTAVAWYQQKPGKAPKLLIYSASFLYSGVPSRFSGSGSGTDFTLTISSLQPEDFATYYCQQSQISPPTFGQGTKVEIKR

[44] = biological target: T29, V3-46s Fab; assay: as above

IC50 (read off the curve) [1]: ~2 nM
B1: mBAFF-Flag protein (ligand, mouse, UniProt Q9WU72 127-309, looked up, not shown: small tags and cut ends)
chain: AFQGPEETEQDVDLSAPPAPCLPGCRHSQHDDNGMNLRNIIQDCLQLIADSDTPTIRKGTYTFVPWLLSFKRGNALEEKENKIVVRQTGYFFIYSQVLYTDPIFAMGHVIQRKKVHVFGDELSLVTLFRCIQNMPKTLPNNSCYSAGIARLEEGDEIQLAIPRENAQISRNGDDTFFGALKLL

EC50 [2]: 3.37 nM
EC50 [3]: 4.3 nM
Kd [4]: 0.64 nM
koff [4]: 0.000171 s⁻¹
kon [4]: 267000 M⁻¹ s⁻¹
Kd [5]: 1.56 nM
koff [5]: 0.000131 s⁻¹
kon [5]: 84000 M⁻¹ s⁻¹
IC50 [6]: 2.47 nM
IC50 [7]: 8.9 nM
F value [8]: 0.5
F value [9]: 98
F value [10]: 92
F value [11]: 0.1
F value [12]: 14
F value [13]: 13
F value [14]: 0.7
F value [15]: 0.7
F value [16]: 1.4
F value [17]: 0.4
F value [18]: 0.8
F value [19]: 0.6
F value [20]: 1.6
F value [21]: 0.9
F value [22]: 0.9
F value [23]: 0.6
F value [24]: 0.7
F value [25]: 2.4
F value [26]: 21
F value [27]: 8.7
F value [28]: 1.4
IC50 (read off the curve) [29]: ~0.6 µg/mL
IC50 (read off the curve) [30]: ~0.8 µg/mL
IC50 [31]: 36.2 nM
B2: V3-1m (antibody, mouse IgG2a, V domains shown)
VH: EVQLVESGGGLVQPGGSLRLSCAASGFTISSNSIHWVRQAPGKGLEWVAWITPSDGNTDYADSVKGRFTISADTSKNTAYLQMNSLRAEDTAVYYCARRVCYNRLGVCAGGMDYWGQGTLVTVSS
VL: DIQMTQSPSSLSASVGDRVTITCRASQDVSTAVAWYQQKPGKAPKLLIYSASFLYSGVPSRFSGSGSGTDFTLTISSLQPEDFATYYCQQSRITPPTFGQGTKVEIKR
notes: also called mV3-1; V3-1 (IgG)

Binder: B3
IC50 [32]: 5.4 nM
IC50 [33]: 8.4 nM
IC50 [34]: 57 nM
IC50 [35]: 33 nM
IC50 [36]: 5.4 nM
IC50 [37]: 1.53 nM
IC50 [38]: 1.7 nM
IC50 [39]: 0.18 nM
IC50 [40]: 0.23 nM
IC50 [41]: 1.42 nM
IC50 [42]: 2.89 nM
IC50 [43]: 2.44 nM
IC50 [44]: 1.53 nM
